Test results taken from article doi:10.1101/306175.

Tests used:
[1] = target: DNA polymerase I Klenow Fragment (KF) (E. coli, UniProt P00582 324-928, D424A); experiment: single-molecule FRET
[2] = target: Pol β "wild-type" (unlabelled) (UniProt P06746 1-335, C239S;C267S;V303C); experiment: single-molecule FRET titration

B1: 1-nt gapped DNA bending sensor (Cy3B/Cy5) (dsDNA)
DNA 1: CCTCATTCTTCGTCCCATTACCATACATCC
DNA 2: CCACGAAGCAGGCTCTACTCTCTAAGGATGTATGGTAATGGGACGAAGAATGAGG
DNA 3: TAGAGAGTAGAGCCTGCTTCGTGG
modifications: primer 3' dideoxy-terminated (printed TCCH); 5'-phosphate on downstream strand
binding result [1]: binds
Kd [2]: 19 ± 2 nM
